In the assay the target is AMDHD1 (UniProt Q96NU7). Description: co-immunoprecipitation, western blot. The settings on record: sites S464,S465,S467. In general terms: A western blot detects proteins with antibodies after separation by electrophoresis.

2 substances from article PMC11742690 can be followed below.

“SMAD2 (from UniProt Q15796) SMAD2-A (S464A/S465A/S467A)”: the “binding against the reference” value (reference: wild-type SMAD2) is “lost”.
Take “SMAD3 (from UniProt P84022) SMAD3-A (three C-terminal serines to alanine)”: the “binding against the reference” value (reference: wild-type SMAD3) is “lost”.
